Assay results taken from publication PMC3884069 (Cellular and molecular life sciences : CMLS, 2012).
Each block holds one molecule with its values, some of them ahead of it.

Legend:
[1] = biological target: HLA-G6 (soluble HLA-G isoform, α1–α3 domains) (human) (UniProt P17693); assay: non-reducing SDS-PAGE and western blot
[2] = biological target: the molecule itself; assay: non-reducing SDS-PAGE and western blot

stoichiometry N [1]: 2
Molecule: HLA-G6 (soluble HLA-G isoform, α1–α3 domains) (from UniProt P17693-6 25-227) (natural protein)

B1: HLA-G2 (membrane-bound HLA-G isoform, α1–α3 domains) (natural protein, human, UniProt P17693-2 25-246, looked up)
MHC heavy: GSHSMRYFSAAVSRPGRGEPRFIAMGYVDDTQFVRFDSDSACPRMEPRAPWVEQEGPEYWEEETRNTKAHAQTDRMNLQTLRGYYNQSEANPPKTHVTHHPVFDYEATLRCWALGFYPAEIILTWQRDGEDQTQDVELVETRPAGDGTFQKWAAVVVPSGEEQRYTCHVQHEGLPEPLMLRWKQSSLPTIPIMGIVAGLVVLAAVVTGAAVAAVLWRKKSSD
stoichiometry N [2]: 2

B2: HLA-G4 (membrane-bound HLA-G isoform, α1–α2 domains) (natural protein, human, UniProt P17693-4 25-246, looked up)
MHC heavy: GSHSMRYFSAAVSRPGRGEPRFIAMGYVDDTQFVRFDSDSACPRMEPRAPWVEQEGPEYWEEETRNTKAHAQTDRMNLQTLRGYYNQSEASSHTLQWMIGCDLGSDGRLLRGYEQYAYDGKDYLALNEDLRSWTAADTAAQISKRKCEAANVAEQRRAYLEGTCVEWLHRYLENGKEMLQRAKQSSLPTIPIMGIVAGLVVLAAVVTGAAVAAVLWRKKSSD
stoichiometry N [2]: 2
